T1: human CD79b recombinant protein (human, UniProt P40259 29-159, limits assumed)
T1 construct: Coated on ELISA plates at 1 ug/ml
T1 sequence (looked up): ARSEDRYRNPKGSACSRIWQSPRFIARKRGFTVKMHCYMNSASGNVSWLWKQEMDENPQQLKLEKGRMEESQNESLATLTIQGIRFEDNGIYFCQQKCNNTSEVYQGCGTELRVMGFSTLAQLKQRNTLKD

B1: Pola/msnCD3 (bispecific antibody, human IgG1, kappa, N297G)
light: DIQLTQSPSSLSASVGDRVTITCKASQSVDYEGDSFLNWYQQKPGKAPKLLIYAASNLESGVPSRFSGSGSGTDFTLTISSLQPEDFATYYCQQSNEDPLTFGQGTKVEIKRTVAAPSVFIFPPSDEQLKSGTASVVCLLNNFYPREAKVQWKVDNALQSGNSQESVTEQDSKDSTYSLSSTLTLSKADYEKHKVYACEVTHQGLSSPVTKSFNRGEC
heavy: EVQLVESGGGLVQPGGSLRLSCAASGYTFSSYWIEWVRQAPGKGLEWIGEILPGGGDTNYNEIFKGRATFSADTSKNTAYLQMNSLRAEDTAVYYCTRRVPIRLDYWGQGTLVTVSSASTKGPSVFPLAPSSKSTSGGTAALGCLVKDYFPEPVTVSWSSGALTSGVHTFPAVLQSSGLYSLSSVVTVPSSSLGTQTYICNVNHKPSNTKVDKKVEPKSCDKTHTCPPCPAPELLGGPSVFLFPPKPKDTLMISRTPEVTCVVVDVSHEDPEVKFNWYVDGVEVHNAKTKPREEQYGSTYRVVSVLTVLHQDWLNGKEYKCKVSNKALPAPIEKTISKAKGQPREPQVYTLPPSRDELTKNQVSLSCAVKGFYPSDIAVEWESNGQPENNYKTTPPVLDSDGSFFLVSKLTVDKSRWQQGNVFSCSVMHEALHNRFTQKSLSLSPGK
chain: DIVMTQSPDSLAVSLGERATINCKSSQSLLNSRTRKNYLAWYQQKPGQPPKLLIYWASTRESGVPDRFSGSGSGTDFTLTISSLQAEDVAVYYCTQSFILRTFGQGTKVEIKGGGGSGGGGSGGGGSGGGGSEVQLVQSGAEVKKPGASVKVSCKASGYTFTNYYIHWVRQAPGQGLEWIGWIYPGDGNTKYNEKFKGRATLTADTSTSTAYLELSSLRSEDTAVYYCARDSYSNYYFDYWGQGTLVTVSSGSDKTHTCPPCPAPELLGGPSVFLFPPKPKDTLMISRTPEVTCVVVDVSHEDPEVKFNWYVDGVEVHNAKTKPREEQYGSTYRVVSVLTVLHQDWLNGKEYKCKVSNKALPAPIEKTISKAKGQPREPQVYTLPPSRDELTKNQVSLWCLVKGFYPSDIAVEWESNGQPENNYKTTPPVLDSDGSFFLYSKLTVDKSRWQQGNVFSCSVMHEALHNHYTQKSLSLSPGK
notes: also called CD79b/CD3 bispecific antibody Pola/msnCD3
B2: 23D8/TRX4 (bispecific antibody, human IgG1, kappa, N297G)
light: AYDMTQTPASVEVAVGGTVTIKCQASQSISDNLSWYQQKPGQPPKLLIYDASDLASGVPSRFSGSGSGTEFTLTISDLEPADAATYYCQQDWISSNVDNTFGGGTEVVVKRTVAAPSVFIFPPSDEQLKSGTASVVCLLNNFYPREAKVQWKVDNALQSGNSQESVTEQDSKDSTYSLSSTLTLSKADYEKHKVYACEVTHQGLSSPVTKSFNRGEC
heavy: QSLEESGGGLVTPGGTLTLTCTVSGLSLSSNAINWVRQAPGKGLEWIGMIYSGGRIEYASWAKGRFTISKTSTTVDLKITSPTTEDTATYFCAKGMSPSAHSSDIWGPGTLVTVSASTKGPSVFPLAPSSKSTSGGTAALGCLVKDYFPEPVTVSWSSGALTSGVHTFPAVLQSSGLYSLSSVVTVPSSSLGTQTYICNVNHKPSNTKVDKKVEPKSCDKTHTCPPCPAPELLGGPSVFLFPPKPKDTLMISRTPEVTCVVVDVSHEDPEVKFNWYVDGVEVHNAKTKPREEQYGSTYRVVSVLTVLHQDWLNGKEYKCKVSNKALPAPIEKTISKAKGQPREPQVYTLPPSRDELTKNQVSLSCAVKGFYPSDIAVEWESNGQPENNYKTTPPVLDSDGSFFLVSKLTVDKSRWQQGNVFSCSVMHEALHNRFTQKSLSLSPGK
chain: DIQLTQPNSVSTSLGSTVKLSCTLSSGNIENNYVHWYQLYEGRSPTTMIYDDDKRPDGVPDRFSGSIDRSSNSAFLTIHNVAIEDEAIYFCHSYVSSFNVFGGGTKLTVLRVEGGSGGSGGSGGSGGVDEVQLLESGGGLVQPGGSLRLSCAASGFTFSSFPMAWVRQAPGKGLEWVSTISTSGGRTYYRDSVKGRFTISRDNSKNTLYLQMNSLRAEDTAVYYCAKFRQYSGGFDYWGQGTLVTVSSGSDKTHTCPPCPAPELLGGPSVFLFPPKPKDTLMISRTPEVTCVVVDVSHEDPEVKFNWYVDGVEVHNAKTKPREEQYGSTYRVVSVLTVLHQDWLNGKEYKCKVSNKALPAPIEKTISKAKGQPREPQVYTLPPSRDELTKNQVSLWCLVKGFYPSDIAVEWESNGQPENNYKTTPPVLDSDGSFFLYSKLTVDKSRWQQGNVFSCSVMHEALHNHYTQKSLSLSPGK
notes: Knob-into-hole format: anti-CD79b Fab arm (rabbit 23D8 variable regions on human IgG1/kappa) and anti-CD3 TRX4 (otelixizumab) scFv-Fc
B3: 23D8/38E4 (bispecific antibody, human IgG1, kappa, N297G)
light: B2 light
heavy: B2 heavy
chain: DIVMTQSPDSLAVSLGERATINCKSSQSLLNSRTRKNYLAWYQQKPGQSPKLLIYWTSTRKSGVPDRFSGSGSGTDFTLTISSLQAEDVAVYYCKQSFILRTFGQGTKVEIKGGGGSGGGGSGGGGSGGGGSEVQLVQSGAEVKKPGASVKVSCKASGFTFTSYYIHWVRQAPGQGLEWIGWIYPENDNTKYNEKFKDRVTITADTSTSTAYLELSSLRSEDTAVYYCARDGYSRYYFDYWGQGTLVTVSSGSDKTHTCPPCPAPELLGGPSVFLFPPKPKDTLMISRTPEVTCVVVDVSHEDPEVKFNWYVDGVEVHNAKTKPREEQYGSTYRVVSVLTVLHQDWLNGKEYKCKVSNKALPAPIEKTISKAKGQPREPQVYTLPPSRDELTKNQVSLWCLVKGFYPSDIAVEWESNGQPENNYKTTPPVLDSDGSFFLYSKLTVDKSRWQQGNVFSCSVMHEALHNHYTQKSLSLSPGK
notes: Knob-into-hole format: anti-CD79b 23D8 Fab arm and anti-CD3 38E4 scFv-Fc; also called CD79b/CD3 bispecific antibody 23D8/38E4
B4: 23D8/msnCD3 (bispecific antibody, human IgG1, kappa, N297G)
light: B2 light
heavy: B2 heavy
chain: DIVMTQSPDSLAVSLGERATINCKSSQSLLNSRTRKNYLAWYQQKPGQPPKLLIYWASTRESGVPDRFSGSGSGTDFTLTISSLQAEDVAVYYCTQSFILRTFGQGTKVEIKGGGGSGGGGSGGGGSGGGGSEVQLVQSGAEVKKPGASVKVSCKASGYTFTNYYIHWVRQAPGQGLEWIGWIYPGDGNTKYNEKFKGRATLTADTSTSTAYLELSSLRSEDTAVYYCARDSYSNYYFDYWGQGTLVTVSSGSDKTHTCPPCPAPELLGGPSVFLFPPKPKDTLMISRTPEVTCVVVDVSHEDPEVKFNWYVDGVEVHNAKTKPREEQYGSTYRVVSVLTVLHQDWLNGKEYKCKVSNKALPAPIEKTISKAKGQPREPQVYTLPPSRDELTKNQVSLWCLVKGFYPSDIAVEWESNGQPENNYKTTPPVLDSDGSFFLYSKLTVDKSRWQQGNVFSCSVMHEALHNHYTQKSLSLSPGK
notes: also called CD79b/CD3 bispecific antibody 23D8/msnCD3

Target: T1, human CD79b recombinant protein
Assay: ELISA, coated human CD79b recombinant protein
Description: The binding affinities of CD79b/CD3 bispecific antibodies to human CD79b recombinant protein were tested by ELISA. 1 μg/ml (in PBS buffer) of human CD79b recombinant protein was coated on ELISA plates overnight. ELISA plates were washed and blocked with blocking buffer (PBS+1% BSA) and then incubated with serial dilutions of primary CD79b/CD3 bispecific antibodies.

Row | binding result | Binder
1 | binds | B1
2 | binds | B2
3 | binds | B3
4 | binds | B4

Reference: patent publication US20250304687A1 (LTZ THERAPEUTICS, published 2025)
